Reference: paper PMC3092815 (Proteins, 2011)

Target: Clostridium perfringens archaeal-type phosphoenolpyruvate carboxylase (PepcA) (Clostridium perfringens) (UniProt Q8XLE8)
Assay: AUC

Clostridium perfringens archaeal-type phosphoenolpyruvate carboxylase (PepcA) (from UniProt Q8XLE8 1-537) (enzyme)
percent of the total concentration as dimer: 30%
